# Results as given in paper PMC5547543.
# Like-named read-outs stand apart in the source and are kept apart here.
# Experiments:
# Hck (2PA-YEEI) [1] = biological target: Hck (2PA-YEEI) (UniProt P08631); assay: SPR; Hck (2PA-YEEI) amine-coupled (EDC/NHS) to a CMD 500 carboxymethyl dextran chip, 6053 RU, BIAcore 2000; Csk, Chk, Chk mutants and chimera as analytes in HBS (10 mM HEPES pH 7.4, 150 mM NaCl, 3.4 mM EDTA, 0.005% Tween 20); global fit to a 1 to 1 model with mass transfer; molecular binding activity from the maximum response
# Hck (2PA-YEEI) [2] = biological target: Hck (2PA-YEEI) (UniProt P08631); assay: as above; remark: listed apart in the source
koff (Hck (2PA-YEEI) [1]) [s⁻¹],kon (Hck (2PA-YEEI) [1]) [M⁻¹ s⁻¹],Kd (Hck (2PA-YEEI) [2]) [µM],fold reduction of kon against wild type Chk (Hck (2PA-YEEI) [1]) [fold],Kd (Hck (2PA-YEEI) [1]) [µM],molecular binding activity (MBA) at 2.7 μM Csk (Hck (2PA-YEEI) [1]; scale: mol of analyte bound per mol of immobilized Hck),Substance
0.00031,243,–,–,–,–,Csk-Chk chimera (from UniProt P41240 1-181; P42679 235-482) (enzyme)
–,–,0.295,3,–,–,Chk (K387A) (from UniProt P42679-2 1-508) (enzyme)
–,–,0.227,3,–,–,Chk (R382A) (from UniProt P42679-2 1-508) (enzyme)
0.0077,588,13,–,13.1,0.01,"C-terminal Src kinase (Csk), recombinant (from UniProt P41240 1-450) (enzyme)"
